Reference: patent US20140348747A1

How the values were obtained:
Experiment in all cases: cell-based or functional assay
[1] = biological target: wild-type non-luminescent polypeptide (WT fragment of residues 1-156 of NanoLuc)
NLpep53-HT = biological target: NLpep53-HT
NLpep9-HT = biological target: NLpep9-HT

Row | Substance | luminescence after complementation (relative; unit not given) [1] | luminescence after complementation (RLU(mutant)/RLU(WT)) (NLpep53-HT) | luminescence after complementation (RLU(mutant)/RLU(WT)) (NLpep9-HT)
1 | HT-NLpep A169E | 0.846 | – | –
2 | HT-NLpep A169L | 1.11 | – | –
3 | HT-NLpep A169N | 0.911 | – | –
4 | HT-NLpep A169R | 0.985 | – | –
5 | HT-NLpep A169T | 0.945 | – | –
6 | HT-NLpep C164N | 0.0874 | – | –
7 | HT-NLpep C164T | 0.0116 | – | –
8 | HT-NLpep G157D | 0.114 | – | –
9 | HT-NLpep G157E | 0.196 | – | –
10 | HT-NLpep G157H | 0.938 | – | –
11 | HT-NLpep G157N | 0.641 | – | –
12 | HT-NLpep G157S | 1.99 | – | –
13 | HT-NLpep I167E | 0.277 | – | –
14 | HT-NLpep I167F | 0.283 | – | –
15 | HT-NLpep I167Q | 0.0178 | – | –
16 | HT-NLpep I167R | 0.0464 | – | –
17 | HT-NLpep I167V | 0.877 | – | –
18 | HT-NLpep L163K | 0.0885 | – | –
19 | HT-NLpep L163T | 0.0259 | – | –
20 | HT-NLpep L163V | 0.173 | – | –
21 | HT-NLpep L163Y | 0.0512 | – | –
22 | HT-NLpep R166K | 1.09 | – | –

Row | Substance | luminescence after complementation (relative; unit not given) [1] | luminescence after complementation (RLU(mutant)/RLU(WT)) (NLpep53-HT) | luminescence after complementation (RLU(mutant)/RLU(WT)) (NLpep9-HT)
23 | HT-NLpep R166N | 0.103 | – | –
24 | HT-NLpep T159K | 0.049 | – | –
25 | HT-NLpep T159Q | 0.398 | – | –
26 | HT-NLpep T159V | 0.566 | – | –
27 | HT-NLpep V158A | 0.135 | – | –
28 | HT-NLpep V158I | 0.608 | – | –
29 | HT-NLpep V158K | 0.077 | – | –
30 | HT-NLpep V158Q | 0.0445 | – | –
31 | HT-NLpep V158S | 0.0487 | – | –
32 | HT-NLpep W161K | 0.0002 | – | –
33 | HT-NLpep W161T | 0.0028 | – | –
34 | HT-NLpep W161V | 0.0086 | – | –
35 | NLpep-HT A169E | 0.789 | – | –
36 | NLpep-HT A169L | 0.905 | – | –
37 | NLpep-HT A169N | 1.78 | – | –
38 | NLpep-HT A169R | 0.501 | – | –
39 | NLpep-HT A169T | 1.37 | – | –
40 | NLpep-HT C164A | 0.0858 | – | –
41 | NLpep-HT C164F | 13.3 | – | –
42 | NLpep-HT C164H | 0.76 | – | –
43 | NLpep-HT C164K | 0.0005 | – | –
44 | NLpep-HT C164L | 1.02 | – | –

Row | Substance | luminescence after complementation (relative; unit not given) [1] | luminescence after complementation (RLU(mutant)/RLU(WT)) (NLpep53-HT) | luminescence after complementation (RLU(mutant)/RLU(WT)) (NLpep9-HT)
45 | NLpep-HT C164M | 3.26 | – | –
46 | NLpep-HT C164N | 0.108 | – | –
47 | NLpep-HT C164Q | 0.0211 | – | –
48 | NLpep-HT C164S | 0.0202 | – | –
49 | NLpep-HT C164T | 0.0084 | – | –
50 | NLpep-HT C164Y | 1.01 | – | –
51 | NLpep-HT G157C | 0.0468 | – | –
52 | NLpep-HT G157D | 0.549 | – | –
53 | NLpep-HT G157E | 1.45 | – | –
54 | NLpep-HT G157H | 0.573 | – | –
55 | NLpep-HT G157N | 3.31 | – | –
56 | NLpep-HT G157P | 0.0543 | – | –
57 | NLpep-HT G157S | 1.72 | – | –
58 | NLpep-HT I167E | 0.244 | – | –
59 | NLpep-HT I167F | 0.179 | – | –
60 | NLpep-HT I167Q | 0.117 | – | –
61 | NLpep-HT I167R | 0.0469 | – | –
62 | NLpep-HT I167V | 1.08 | – | –
63 | NLpep-HT L163I | 0.292 | – | –
64 | NLpep-HT L163K | 0.0786 | – | –
65 | NLpep-HT L163T | 0.0262 | – | –
66 | NLpep-HT L163V | 0.119 | – | –

Row | Substance | luminescence after complementation (relative; unit not given) [1] | luminescence after complementation (RLU(mutant)/RLU(WT)) (NLpep53-HT) | luminescence after complementation (RLU(mutant)/RLU(WT)) (NLpep9-HT)
67 | NLpep-HT L163Y | 0.196 | – | –
68 | NLpep-HT R166K | 1.21 | – | –
69 | NLpep-HT R166N | 0.118 | – | –
70 | NLpep-HT T159K | 0.0307 | – | –
71 | NLpep-HT T159Q | 0.031 | – | –
72 | NLpep-HT T159V | 0.0455 | – | –
73 | NLpep-HT V158A | 0.144 | – | –
74 | NLpep-HT V158I | 1.6 | – | –
75 | NLpep-HT V158K | 0.192 | – | –
76 | NLpep-HT V158Q | 0.0397 | – | –
77 | NLpep-HT V158S | 0.0838 | – | –
78 | NLpep-HT W161E | 0.0012 | – | –
79 | NLpep-HT W161F | 0.0717 | – | –
80 | NLpep-HT W161K | 0.0008 | – | –
81 | NLpep-HT W161T | 0.01 | – | –
82 | NLpep-HT W161V | 0.005 | – | –
83 | NLpep-HT W161Y | 0.215 | – | –
84 | NLpoly D108N | – | 1.88 | 2.08
85 | NLpoly F31I | – | 2.83 | 4.1
86 | NLpoly F31L | – | 2.86 | 3.13
87 | NLpoly F31V | – | 2.12 | 2.12
88 | NLpoly G15S | – | 2.34 | 1.98

Row | Substance | luminescence after complementation (relative; unit not given) [1] | luminescence after complementation (RLU(mutant)/RLU(WT)) (NLpep53-HT) | luminescence after complementation (RLU(mutant)/RLU(WT)) (NLpep9-HT)
89 | NLpoly G67D | – | 1.57 | 1.78
90 | NLpoly G67S | – | 1.29 | 1.22
91 | NLpoly I56N | – | 1.81 | 0.44
92 | NLpoly I59T | – | 1.35 | 1.07
93 | NLpoly K75E | – | 2.05 | 2.08
94 | NLpoly L18Q | – | 2.99 | 3.81
95 | NLpoly L149M | – | 2.16 | 2.89
96 | NLpoly M106I | – | 1.31 | 1.27
97 | NLpoly M106V | – | 1.4 | 1.3
98 | NLpoly N33K | – | 1.76 | 2.15
99 | NLpoly N33R | – | 1.56 | 2.1
100 | NLpoly N144T | – | 2.26 | 3.69
101 | NLpoly N156D | – | 1.21 | 1.57
102 | NLpoly N156S | – | 1.4 | 1.04
103 | NLpoly Q20K | – | 2.33 | 4.43
104 | NLpoly Q32R | – | 1.04 | 1.52
105 | NLpoly R11N | – | 2.09 | 3.37
106 | NLpoly R112N | – | 1.45 | 1.61
107 | NLpoly T13I | – | 1.44 | 2.18
108 | NLpoly V27M | – | 1.7 | 1.99
109 | NLpoly V58A | – | 1.07 | 1.88
110 | NLpoly V157D | – | 3.02 | 4.98
